These are literature values, as cited in PMC10410519.

pKi: −log10 of the molar value.

The target of this data set is Growth hormone receptor (Homo sapiens) (UniProt P10912). Kind of data set: competition.

Consider hGH (from UniProt P01241), for which the negative-log Ki (pKi) was 8.46.

Broadly, the pKi is the Ki on a negative log10 scale, so that one unit is a factor of ten.
